Measurements as given in publication PMC8313811 (Current Research in Structural Biology, 2021).

B1: M. marinum EspB2-286 (domain or fragment)
chain: SQPQTVTVDQQEILNRADEVEAPMATPPTDVPQAPSGLTAANNAAEQLAVSADNVRLYLQAGERERQRLATSLRNAAAAYGEVEDESATALDNDGNGEVDAQSAGGAGAGQTESLEETPKVAAAGESDFTDLKTAATKLESGDQGTSMVNFADGWNNFNLSLQRDIKRFRIFENWEGDAATACEASMDQQKEWILHMAKLSASLAKQANFMAQLQLWARRGHPTLADIVELERLAKDPDYQEQAIKLYAEYQETSEKVLSEYNTKADLEPVNPPKPPAAIKIDPP
B2: M. tuberculosis EspB2-287 (domain or fragment)
chain: TQSQTVTVDQQEILNRANEVEAPMADPPTDVPITPCELTAAKNAAQQLVLSADNMREYLAAGAKERQRLATSLRNAAKAYGEVDEEAATALDNDGEGTVQAESAGAVGGDSSAELTDTPRVATAGEPNFMDLKEAARKLETGDQGASLAHFADGWNTFNLTLQGDVKRFRGFDNWEGDAATACEASLDQQRQWILHMAKLSAAMAKQAQYVAQLHVWARREHPTYEDIVGLERLYAENPSARDQILPVYAEYQQRSEKVLTEYNNKAALEPVNPPKPPPAIKIDPP
B3: M. tuberculosis EspB (residues 2-358), mature form (domain or fragment)
chain: TQSQTVTVDQQEILNRANEVEAPMADPPTDVPITPCELTAAKNAAQQLVLSADNMREYLAAGAKERQRLATSLRNAAKAYGEVDEEAATALDNDGEGTVQAESAGAVGGDSSAELTDTPRVATAGEPNFMDLKEAARKLETGDQGASLAHFADGWNTFNLTLQGDVKRFRGFDNWEGDAATACEASLDQQRQWILHMAKLSAAMAKQAQYVAQLHVWARREHPTYEDIVGLERLYAENPSARDQILPVYAEYQQRSEKVLTEYNNKAALEPVNPPKPPPAIKIDPPPPPQEQGLIPGFLMPPSDGSGVTPGTGMPAAPMVPPTGSPGGGLPADTAAQLTSAGREAAALSGDVAVKAA

Key:
cryo-EM structure = molecular target: the molecule itself; experiment: cryo-EM structure
SEC = molecular target: the molecule itself; experiment: SEC

| Protein | stoichiometry N (cryo-EM structure) | binding result (SEC) |
| --- | --- | --- |
| B1 | 7 |  |
| B2 | 7 |  |
| B3 |  | binds |
